Experimental data from the DeepSol protein solubility set.

Experiment: soluble on expression in E. coli; label from the status in PepcDB or PDB records

Row | Sequence | soluble on expression in E. coli
1 | MPIAQLLELWKKIEVEPMEIETTEEDLNLDVGPATEDTAEEGKSDSAACKTKVAGSVEEEGVVKEIDISHHVKEGFEKADPSQFELLKVLGQGSYGKVFLVRKVKGSDAGQLYAMKVLKKATLKVRDRVRSKMERDILAEVNHPFIVKLHYAFQTEGKLYLILDFLRGGDLFTRLSKEVMFTEEDVKFYLAELALALDHLHSLGIIYRDLKPENILLDEEGHIKITDFGLSKEAIDHDKRAYSFCGTIEYMAPEVVNRRGHTQSADWWSFGVLMFEMLTGSLPFQGKDRKETMALILKAKLGMPQFLSGEAQSLLRALFKRNPCNRLGAGIDGVEEIKRHPFFVTIDWNTLYRKEIKPPFKPAVGRPEDTFHFDPEFTARTPTDSPGVPPSANAHHLFRGFSFVASSLIQEPSQQDLHKVPVHPIVQQLHGNNIHFTDGYEIKEDIGVGSYSVCKRCVHKATDTEYAVKIIDKSKRDPSEEIEILLRYGQHPNIITLKDVYDDGKFVYLVMELMRGGELLDRILRQRYFSEREASDVLCTITKTMDYLHSQGVVHRDLKPSNILYRDESGSPESIRVCDFGFAKQLRAGNGLLMTPCYTANFVAPEVLKRQGYDAACDIWSLGILLYTMLAGFTPFANGPDDTPEEILARIGSGKYALSGGNWDSISDAAKDVVSKMLHVDPHQRLTAMQVLKHPWVVNREYLSPNQLSRQDVHLVKGAMAATYFALNRTPQAPRLEPVLSSNLAQRRGMKRLTSTRL | soluble
2 | MPIATPEVYAEMLGQAKQNSYAFPAINCTSSETVNAAIKGFADAGSDGIIQFSTGGAEFGSGLGVKDMVTGAVALAEFTHVIAAKYPVNVALHTDHCPKDKLDSYVRPLLAISAQRVSKGGNPLFQSHMWDGSAVPIDENLAIAQELLKAAAAAKIILEIEIGVVGGEEDGVANEINEKLYTSPEDFEKTIEALGAGEHGKYLLAATFGNVHGVYKPGNVKLRPDILAQGQQVAAAKLGLPADAKPFDFVFHGGSGSLKSEIEEALRYGVVKMNVDTDTQYAFTRPIAGHMFTNYDGVLKVDGEVGVKKVYDPRSYLKKAEASMSQRVVQACNDLHCAGKSLTHHHHHH | soluble
3 | MPILIRNIVLAPGEGDDVLGTRVAERFGVPERDIQSLHLVRKSIDARRKPRVIIVCTVQCRLLDEAGFLVRHGHDPDVKAVKEEPQPVFPRLAGGGRIVIVGMGPAGLFAALRLAEYGLAPTILERGRPVEERTRDVQAFWSLGQLDTESNVQFGEGGAGTFSDGKLTTRVNDSRIGYVLQKFVDFGASPEILHLAKPHVGTDQLRRVVAGIRQGLLAAGCDIRFRSRVTDIVSREGRVGTVIVNGTDEIAADALVLAPGHSARDTYEMLARRGVHLQAKPFAMGVRVEHPQELINGIQYGKGHHPALPPADYALAHNDRRTGRSAYSFCMCPGGVVVAGSSEEGGVVTNGMSAHLRNTPFANSALVVTVGPDDFGSSSPLAGVEFQRHWERRAFEAGGGGYRAPAQNLLSFLGMKGGKGVSSSYRPRVTETDLSRVLPAAVTGTLREALPTFDRRMRGFVTAEATLTGVETRTSAPVRIVRGEDCQSVSLQGLYPTGEGAGYAGGIMSAALDGIRVADIIAGKMTAETRSAILEHHHHHH | not soluble
4 | MPIMSIISCKIMQDEIIWILENDSSIDETIIIDSENILEFVEKLDKVNLQYKVLSLEDISSLAEIRSECKNYTVMIHLMELGLHRSPKELKIKVYETIKTLAPFSSGILLFYGLCGNVLGDVEKDFERSSTSCPVRILKDKDHRIVDDCIGATVGGVNNYLRILKSVSDAGTYLFTPMYSKGWRELLDLNKLNKDPSKALKLMKKTHEMIGYKRVAKINTGLEYTENFDASIQEFAELFDFEILEFDDGNQKIFEDCYNELKAELLEHHHHHH | not soluble
5 | MPINAAYRGPADLPEVIPVFPLAGALLLPRGQMPLNIFEPRYLAMIDDALRDGHRLIGMIQPDAAHSSETAEKPSLFNVGCVGRITQLAESGDGRYILELTGVSRFKVVDELQVLTPYRQCKVDYFPFGDDFTARKGEDEVDRETLLSVLTDFLKANNLKVDWDGVESAPNEALVNALAMMSPYGPPEKQALLEAPDLKTRAEILIAVTEMDLAKKRTSGDPPLQLEHHHHHH | not soluble
6 | MPIVMARDLEETASSSEDEEVISQEDHPCIMWTGGCRRIPVLVFHADAILTKDNNIRVIGERYHLSYKIVRTDSRLVRSILTAHGFHEVHPSSTDYNLMWTGSHLKPFLLRTLSEAQKVNHFPRSYELTRKDRLYKNIIRMQHTHGFKAFHILPQTFLLPAEYAEFCNSYSKDRGPWIVKPVASSRGRGVYLINNPNQISLEDNILVSRYINNPLLIDDFKFDMRLYVLVTSYDPLVIYLYEEGLARKCNWKMGNTMDKRRLPIYVQVL | not soluble
